*1 amine or outer side, *2 acyl side, *3 side chain or, on linkers, in order; H or OH if unused. Where no end group is shown, it is not given here. [ ]: non-standard residue; d: D form. Dap(Dnp) = diaminopropionic acid carrying a 2,4-dinitrophenyl quencher, O=C([C@H](CNc1ccc([N+](=O)[O-])cc1[N+](=O)[O-])N[*:1])[*:2]; 2Abz = Nc1ccccc1C(=O)O
Molecular target: circularly permuted Caspase-2 double mutant Asp323Thr/His226Ala (human) (UniProt P42575)
Chain of UniProt P42575 (P42575 whole entry H226A/D323T): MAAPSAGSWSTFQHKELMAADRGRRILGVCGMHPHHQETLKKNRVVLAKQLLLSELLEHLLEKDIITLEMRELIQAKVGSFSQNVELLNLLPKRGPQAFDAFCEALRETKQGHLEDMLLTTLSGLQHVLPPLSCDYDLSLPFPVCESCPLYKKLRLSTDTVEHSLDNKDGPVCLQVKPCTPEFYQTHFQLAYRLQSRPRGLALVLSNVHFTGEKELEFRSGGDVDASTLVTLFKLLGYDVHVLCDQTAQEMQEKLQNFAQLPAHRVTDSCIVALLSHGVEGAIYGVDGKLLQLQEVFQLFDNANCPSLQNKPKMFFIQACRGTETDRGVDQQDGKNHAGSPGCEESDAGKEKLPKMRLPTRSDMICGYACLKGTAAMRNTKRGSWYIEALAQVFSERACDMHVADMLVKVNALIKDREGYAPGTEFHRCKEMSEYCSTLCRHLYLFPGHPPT

Binder | K M (Michaelis-Menten kinetics, FRET peptide-based cleavage assay, 1 μM enzyme)
[2Abz]VDVADLA-{Dap(Dnp)} [Abz-VDVAD-LA-Dap(Dnp)] | 193 µM
[2Abz]VDVADPA-{Dap(Dnp)} [Abz-VDVAD-PA-Dap(Dnp)] | 43 µM
[2Abz]VDVADAA-{Dap(Dnp)} [Abz-VDVAD-AA-Dap(Dnp)] | 57 µM

Continued, values first:

K M (Michaelis-Menten kinetics, FRET peptide-based cleavage assay, 1 μM enzyme) | Binder
55 µM | [2Abz]VDVADGA-{Dap(Dnp)} [Abz-VDVAD-GA-Dap(Dnp)]
82 µM | [2Abz]VDVADTA-{Dap(Dnp)} [Abz-VDVAD-TA-Dap(Dnp)]
77 µM | [2Abz]VDVADVA-{Dap(Dnp)} [Abz-VDVAD-VA-Dap(Dnp)]

— article PMC7497161
